From the supplement of paper PMC10567573

B1: DYRK1B (parent)
chain: RFQDLVLRMLEYEPAARISPLGAL

Variants of: B1
Test: protein stability index of a GFP-peptide fusion (GPS, HEK-293T) (PSI 1-6); higher = more stable
Settings: c terminus: a fixed tail appended
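Note: lentivirally expressed fusions sorted by FACS into six bins by GFP to DsRed ratio, PSI derived from sequencing read proportions per bin multiplied by bin number.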

Variant	protein stability index
RFNDLVLRMLEYEPAARISPLGAL	2.28
RFPDLVLRMLEYEPAARISPLGAL	2.05
RFRDLVLRMLEYEPAARISPLGAL	1.19
RFSDLVLRMLEYEPAARISPLGAL	2.84
RFTDLVLRMLEYEPAARISPLGAL	3.41
RFVDLVLRMLEYEPAARISPLGAL	4.49
RFYDLVLRMLEYEPAARISPLGAL	3.44
RFQHLVLRMLEYEPAARISPLGAL	2.78
RFQILVLRMLEYEPAARISPLGAL	1.1
RFQKLVLRMLEYEPAARISPLGAL	2.07
RFQNLVLRMLEYEPAARISPLGAL	1.91
RFQRLVLRMLEYEPAARISPLGAL	2.31
RFQSLVLRMLEYEPAARISPLGAL	2.88
RFQVLVLRMLEYEPAARISPLGAL	3.69
RFQDAVLRMLEYEPAARISPLGAL	2.01
RFQDCVLRMLEYEPAARISPLGAL	3.97
RFQDDVLRMLEYEPAARISPLGAL	2.71
RFQDEVLRMLEYEPAARISPLGAL	1.02
RFQDFVLRMLEYEPAARISPLGAL	2.62
RFQDGVLRMLEYEPAARISPLGAL	1.4
RFQDHVLRMLEYEPAARISPLGAL	1.36
RFQDKVLRMLEYEPAARISPLGAL	1.91
RFQDMVLRMLEYEPAARISPLGAL	3.17
RFQDNVLRMLEYEPAARISPLGAL	2.28

Variant	protein stability index
RFQDPVLRMLEYEPAARISPLGAL	2.16
RFQDQVLRMLEYEPAARISPLGAL	1.1
RFQDRVLRMLEYEPAARISPLGAL	1.2
RFQDTVLRMLEYEPAARISPLGAL	1.49
RFQDVVLRMLEYEPAARISPLGAL	2.42
RFQDWVLRMLEYEPAARISPLGAL	2
RFQDYVLRMLEYEPAARISPLGAL	2.06
RFQDLALRMLEYEPAARISPLGAL	2.26
RFQDLDLRMLEYEPAARISPLGAL	2.24
RFQDLGLRMLEYEPAARISPLGAL	1.88
RFQDLHLRMLEYEPAARISPLGAL	2.01
RFQDLILRMLEYEPAARISPLGAL	2.23
RFQDLKLRMLEYEPAARISPLGAL	1.51
RFQDLLLRMLEYEPAARISPLGAL	1.77
RFQDLNLRMLEYEPAARISPLGAL	2.78
RFQDLPLRMLEYEPAARISPLGAL	2.58
RFQDLQLRMLEYEPAARISPLGAL	2.12
RFQDLRLRMLEYEPAARISPLGAL	2
RFQDLSLRMLEYEPAARISPLGAL	1.91
RFQDLTLRMLEYEPAARISPLGAL	2.07
RFQDLWLRMLEYEPAARISPLGAL	1.03
RFQDLYLRMLEYEPAARISPLGAL	2.18
RFQDLVERMLEYEPAARISPLGAL	1.8
RFQDLVFRMLEYEPAARISPLGAL	2.9

Variant	protein stability index
RFQDLVGRMLEYEPAARISPLGAL	1.18
RFQDLVHRMLEYEPAARISPLGAL	1.03
RFQDLVKRMLEYEPAARISPLGAL	1.51
RFQDLVMRMLEYEPAARISPLGAL	2.13
RFQDLVNRMLEYEPAARISPLGAL	1.41
RFQDLVPRMLEYEPAARISPLGAL	2.25
RFQDLVQRMLEYEPAARISPLGAL	1.69
RFQDLVRRMLEYEPAARISPLGAL	1.58
RFQDLVSRMLEYEPAARISPLGAL	2.05
RFQDLVTRMLEYEPAARISPLGAL	2.3
RFQDLVYRMLEYEPAARISPLGAL	1.38
RFQDLVLAMLEYEPAARISPLGAL	4.01
RFQDLVLCMLEYEPAARISPLGAL	2.22
RFQDLVLDMLEYEPAARISPLGAL	1.31
RFQDLVLEMLEYEPAARISPLGAL	2.06
RFQDLVLGMLEYEPAARISPLGAL	1.33
RFQDLVLHMLEYEPAARISPLGAL	1.85
RFQDLVLIMLEYEPAARISPLGAL	2.21
RFQDLVLLMLEYEPAARISPLGAL	1.89
RFQDLVLMMLEYEPAARISPLGAL	3.14
RFQDLVLPMLEYEPAARISPLGAL	2.23
RFQDLVLRDLEYEPAARISPLGAL	3.29
RFQDLVLRELEYEPAARISPLGAL	1.98
RFQDLVLRFLEYEPAARISPLGAL	2.77

Variant	protein stability index
RFQDLVLRGLEYEPAARISPLGAL	1.33
RFQDLVLRHLEYEPAARISPLGAL	2.78
RFQDLVLRKLEYEPAARISPLGAL	1.53
RFQDLVLRLLEYEPAARISPLGAL	2.7
RFQDLVLRNLEYEPAARISPLGAL	2.33
RFQDLVLRRLEYEPAARISPLGAL	1.86
RFQDLVLRSLEYEPAARISPLGAL	1.09
RFQDLVLRTLEYEPAARISPLGAL	1.83
RFQDLVLRMAEYEPAARISPLGAL	3.32
RFQDLVLRMDEYEPAARISPLGAL	1.92
RFQDLVLRMEEYEPAARISPLGAL	1.27
RFQDLVLRMGEYEPAARISPLGAL	1.66
RFQDLVLRMHEYEPAARISPLGAL	1.17
RFQDLVLRMIEYEPAARISPLGAL	1.96
RFQDLVLRMMEYEPAARISPLGAL	2.05
RFQDLVLRMNEYEPAARISPLGAL	1.64
RFQDLVLRMPEYEPAARISPLGAL	2.37
RFQDLVLRMQEYEPAARISPLGAL	1.6
RFQDLVLRMTEYEPAARISPLGAL	2.19
RFQDLVLRMLAYEPAARISPLGAL	1.56
RFQDLVLRMLHYEPAARISPLGAL	2.96
RFQDLVLRMLLYEPAARISPLGAL	2.25
